This is an account of results in patent publication US20220144956A1 (published 2022).

The chains are these.
B1: H1 L1.12 XENP34575 (antibody, V domains shown)
VH: QLQVQESGPGLVKPSETLSLTCTVSGGSISNSYFSWGWIRQPPGKGLEWIGSFYYGEKTYYNPSLKSRATISIDTSKSQFSLKLSSVTAADTAVYYCPRGPTMIRGVIDSWGQGTLVTVSS
VL: EIVLTQSPATLSLSPGERATLSCRASQSVRTYLAWYQQKPGQAPRLLIYDASNRATGIPARFSGSGSGTDFTLTISSLEPEDFAVYYCQQRSNWPPTFGQGTKVEIK
B2: H1 L1.9 XENP34572 (antibody, V domains shown)
VH: B1 VH
VL: B1 VL with R30Q, T31S
B3: H1 L1.42 XENP34605 (antibody, V domains shown)
VH: B1 VH
VL: B1 VL with T31S, S92G
B4: H1 L1.36 XENP34599 (antibody, V domains shown)
VH: B1 VH
VL: B1 VL with T31S, R91E
B5: H1 L1.22 XENP34585 (antibody, V domains shown)
VH: B1 VH
VL: B1 VL with T31S, D50S
B6: H1 L1.35 XENP34598 (antibody, V domains shown)
VH: B1 VH
VL: B1 VL with T31S, V85T
B7: H1 L1.40 XENP34603 (antibody, V domains shown)
VH: B1 VH
VL: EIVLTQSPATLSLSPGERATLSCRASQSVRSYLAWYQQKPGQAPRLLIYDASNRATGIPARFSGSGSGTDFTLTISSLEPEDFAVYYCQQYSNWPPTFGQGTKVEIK
B8: H1.6 L1 XENP34462 (antibody, V domains shown)
VH: B1 VH with E16Q
VL: B1 VL with T31S
B9: H1.37 L1 XENP34493 (antibody, V domains shown)
VH: B1 VH with I39V
VL: B1 VL with T31S
B10: H1.28 L1 XENP34484 (antibody, V domains shown)
VH: B1 VH with S35A
VL: B1 VL with T31S
B11: H1.31 L1 XENP34487 (antibody, V domains shown)
VH: B1 VH with W36I
VL: B1 VL with T31S
B12: H1.27 L1 XENP34483 (antibody, V domains shown)
VH: B1 VH with F34Y
VL: B1 VL with T31S
B13: H1.7 L1 XENP34463 (antibody, V domains shown)
VH: B1 VH with T23A
VL: B1 VL with T31S
B14: H1.24 L1 XENP34480 (antibody, V domains shown)
VH: B1 VH with Y33H
VL: B1 VL with T31S
B15: H1.21 L1 XENP34477 (antibody, V domains shown)
VH: B1 VH with Y33A
VL: B1 VL with T31S
B16: H1.3 L1 XENP34459 (antibody, V domains shown)
VH: B1 VH with L2V, V4L
VL: B1 VL with T31S
B17: H1.12 L1 XENP34468 (antibody, V domains shown)
VH: B1 VH with N31E
VL: B1 VL with T31S
B18: H1.5 L1 XENP34461 (antibody, V domains shown)
VH: B1 VH with P9S
VL: B1 VL with T31S
B19: H1.16 L1 XENP34472 (antibody, V domains shown)
VH: B1 VH with N31Q
VL: B1 VL with T31S
B20: H1.32 L1 XENP34488 (antibody, V domains shown)
VH: B1 VH with W36M
VL: B1 VL with T31S
B21: H1.15 L1 XENP34471 (antibody, V domains shown)
VH: B1 VH with N31T
VL: B1 VL with T31S
B22: H1.36 L1 XENP34492 (antibody, V domains shown)
VH: B1 VH with G37S
VL: B1 VL with T31S
B23: H1.29 L1 XENP34485 (antibody, V domains shown)
VH: B1 VH with S35T
VL: B1 VL with T31S
B24: H1.17 L1 XENP34473 (antibody, V domains shown)
VH: B1 VH with N31R
VL: B1 VL with T31S
B25: H1.13 L1 XENP34469 (antibody, V domains shown)
VH: B1 VH with N31G
VL: B1 VL with T31S
B26: H1.14 L1 XENP34470 (antibody, V domains shown)
VH: B1 VH with N31S
VL: B1 VL with T31S
B27: H1.34 L1 XENP34490 (antibody, V domains shown)
VH: B1 VH with G37H
VL: B1 VL with T31S
B28: H1.30 L1 XENP34486 (antibody, V domains shown)
VH: B1 VH with S35Y
VL: B1 VL with T31S
B29: H1.25 L1 XENP34481 (antibody, V domains shown)
VH: B1 VH with F34H
VL: B1 VL with T31S
B30: H1.33 L1 XENP34489 (antibody, V domains shown)
VH: B1 VH with G37A
VL: B1 VL with T31S
B31: H1.1 L1 XENP28299 (antibody, V domains shown)
VH: B1 VH with M103V
VL: B1 VL with T31S
B32: H1.20 L1 XENP34476 (antibody, V domains shown)
VH: B1 VH with S32T
VL: B1 VL with T31S
B33: H1.9 L1 XENP34465 (antibody, V domains shown)
VH: B1 VH with I29F
VL: B1 VL with T31S
B34: H1.26 L1 XENP34482 (antibody, V domains shown)
VH: B1 VH with F34S
VL: B1 VL with T31S
B35: H1.18 L1 XENP34474 (antibody, V domains shown)
VH: B1 VH with S32A
VL: B1 VL with T31S
B36: H1.4 L1 XENP34460 (antibody, V domains shown)
VH: B1 VH with V4L
VL: B1 VL with T31S
B37: H1.10 L1 XENP34466 (antibody, V domains shown)
VH: B1 VH with I29V
VL: B1 VL with T31S
B38: H1.22 L1 XENP34478 (antibody, V domains shown)
VH: B1 VH with Y33D
VL: B1 VL with T31S
B39: H1.2 L1 XENP34458 (antibody, V domains shown)
VH: B1 VH with L2V
VL: B1 VL with T31S
B40: H1.8 L1 XENP34464 (antibody, V domains shown)
VH: B1 VH with G27Y
VL: B1 VL with T31S
B41: H1.38 L1 XENP34494 (antibody, V domains shown)
VH: B1 VH with P42A
VL: B1 VL with T31S
B42: H1.23 L1 XENP34479 (antibody, V domains shown)
VH: B1 VH with Y33G
VL: B1 VL with T31S
B43: H1.19 L1 XENP34475 (antibody, V domains shown)
VH: B1 VH with S32G
VL: B1 VL with T31S
B44: H1 L1 WT XENP28298 (antibody, V domains shown)
VH: B1 VH
VL: B1 VL with T31S
B45: H1.11 L1 XENP34467 (antibody, V domains shown)
VH: B1 VH with N31D
VL: B1 VL with T31S

By Kd is commonly meant the concentration at which binding is half-saturated. The low end stands for a tighter complex, the high end for a looser complex.

Changes are numbered by the printed parent chain.

The first experiment deals with T1, human TGFßRII (antigen of the Octet experiments) (human, UniProt P37173 23-166). Put plainly: BLI (Octet). (In general: Biolayer interferometry detects binding as a change in optical thickness at a sensor tip.)
T1 sequence (P37173 23-166): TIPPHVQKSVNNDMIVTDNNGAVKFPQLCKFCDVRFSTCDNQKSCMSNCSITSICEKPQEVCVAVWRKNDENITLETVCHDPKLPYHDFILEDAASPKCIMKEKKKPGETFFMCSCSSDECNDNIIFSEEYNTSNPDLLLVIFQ
As to B1, the affinity, expressed as Kd, was 539 pM. Regarding B2, the Kd came out at 16400 pM. Against the preceding molecule, the Kd is about 30-fold higher.

For the molecule B3, binding was characterised by a dissociation constant (Kd) of 2940 pM. This Kd is about 5.6-fold lower than that of the molecule before. In the case of B4, the Kd turned out to be 59300 pM. In the case of B5, binding was characterised by a dissociation constant (Kd) of 782 pM. This Kd is about 76-fold lower than that of the molecule before. The same measure, in the same setting: the figure for B6 is 344 pM. The molecule B7 yielded a Kd of 23100 pM.

For another experiment, the target named is T1, human TGFßRII (antigen of the Octet …). Kind of experiment: BLI (Octet). The source holds these as a separate data set.
With B8, the Kd stood at 24.2 pM.

For the molecule B9, the Kd came out at 391 pM. As to B10, the Kd worked out at 3600 pM.

The molecule B11 registered a Kd of 7280 pM.

Turning to B12, binding was characterised by a dissociation constant (Kd) of 809 pM. Consider B13, for which binding was characterised by a dissociation constant (Kd) of 316 pM. Consider B14, for which the Kd was 199 pM.

Molecule B15 showed a Kd of 455 pM. For B16, binding was put at a Kd of 1 pM. For B17, the Kd was 374 pM. In the case of B18, the Kd came to 245 pM. On to B19, for which the affinity, expressed as Kd, was 407 pM. Same read-out and setting: the figure for B20 is 2470 pM. For the molecule B21, binding was characterised by a dissociation constant (Kd) of 11.5 pM. Against the preceding molecule, the Kd is about 210-fold lower. Regarding B22, binding was put at a Kd of 1760 pM. The molecule B23 displayed a Kd of 1790 pM. Take B24: binding was put at a Kd of 292 pM. With B25, binding was characterised by a dissociation constant (Kd) of 1000 pM. Compared with the last molecule, the Kd is about 3.4-fold higher.

As to B26, the Kd was 181 pM. Regarding B27, the Kd came to 5730 pM. On the same count and under the same terms, then B28, with 5900 pM; and B29, with 415 pM; and B30, with 414 pM. B31 showed a dissociation constant Kd of 325 pM. As to B32, the Kd was 559 pM. The same measure, in the same setting: the figure for B33 is 496 pM; for B34 it is 273 pM. B35 registered a Kd of 205 pM. Same read-out and setting: then B36, with 128 pM; and B37, with 182 pM; and B38, with 1970 pM.

In the case of B39, the Kd came to 1 pM. On the same count and under the same terms, then B40, with 238 pM; and B41, with 325 pM.

B42 gave a Kd of 767 pM. Molecule B43 yielded a Kd of 836 pM. As for B44, binding was put at a Kd of 1 pM. This Kd lies about 840-fold lower than the previous one. In turn, B45 gave a Kd of 419 pM.
